Laboratory results as given in article PMC4672631.
Like-named read-outs stand apart in the source and are kept apart here.

Key:
[1] = biological target: cytochrome f (PetA) with a C-terminal six-histidine tag, F. diplosiphon SF33 (Fremyella diplosiphon SF33); experiment: co-purification
[2] = biological target: cytochrome f (PetA) with a C-terminal six-histidine tag, F. diplosiphon SF33 (Fremyella diplosiphon SF33); experiment: co-purification; remark: listed apart in the source
[3] = biological target: cytochrome b6f complex of spinach (monomeric unit) (spinach) (UniProt P16013); experiment: native gel or EMSA

Substance	stoichiometry N (relative to cyt f) [1]	stoichiometry N (relative to cyt f) [2]	stoichiometry N [3]
subunit IV (PetD), F. diplosiphon SF33 (natural protein)	0.45	0.29	
iron-sulfur protein (ISP), full length, F. diplosiphon SF33 (natural protein)	0.17	0.21	
cytochrome b6f complex of spinach (monomeric unit) (from UniProt P16013 36-320; P00165 1-215; P08980 52-230; P00166 1-160)			2
cytochrome b6 (PetB), F. diplosiphon SF33 (natural protein)	1.09	0.69	
